From patent US20080248043A1 (Amgen, published 2008) come the findings set out here.

The target of assay [1] is T1, S1-Ig (318-510) (SARS-CoV; human, UniProt P59594 318-510). As to the kind of experiment: ELISA, coated S1-IgG 318-510.
Assay [2] deals with S1-Ig (12-510) (SARS-CoV; human, UniProt P59594 12-510). As to the kind of experiment: ELISA, coated S1-IgG 12-510. (In an ELISA, binding on a coated surface is turned into a signal by an enzyme label.)
Assay [3] has as its target S1-Ig (12-672) (SARS-CoV; human, UniProt P59594 12-672). As to the kind of experiment: ELISA, coated S1-IgG 12-672.
Assay [4] concerns the target S1-Ig (261-672) (SARS-CoV; human, UniProt P59594 261-672). As to the kind of experiment: ELISA, coated S1-IgG 261-672.
In assay [5] the target is T1, S1-Ig (318-510). As to the kind of experiment: ELISA on coated S1-Ig fragment.

Where a chain is given by its changes, count along the chain named.

B1: 3C7 (antibody, V domains shown)
VH: QVQLVESGGGVVQPGTSLRLSCAASGFTFSSYGIHWVRQAPGKGLEWVAVIWYDGSNKFYADSVKGRFTISRDNSKNTLYLQMNSLRAEDTAVYYCARDPLGYCSSTSCSYFDYWGQGTLVTVSS
VL: DIQMTQSPSSVSASVGDRVTITCRASQGISNWLAWYQQKPGKAPKLLIYAASSLQSGVPSRFSGSGSGTDFTLTIRSLQPEDFATYYCQQANNFPLTFGGGTKVEIK
As for B1, the “Reactivity S1-IgG (ELISA OD)” value was found to be 2.19 OD in assay [1], 1.42 OD in assay [2], 1.09 OD in assay [3] and 0.357 OD in assay [4].

B2: 6B1 (antibody, V domains shown)
VH: B1 VH with Y60H
VL: B1 VL with R76S
Consider B2, for which the “Reactivity S1-IgG (ELISA OD)” value in assay [1] was found to be 2.09 OD; in assay [2] it was 1.17 OD; in assay [3], 1.13 OD; in assay [4], 0.369 OD.

B3: 1B5 (antibody, V domains shown)
VH: QVQLVESGGGVVQPGRSLRLSCAASGFTFSSYGMHWVRQAPGKGLEWVAVIWYDGSNKYYADSVKGRFTISRDNSKNTLYLQMNSLRAEDTAVYYCARGDFYWFDPWGQGTLVTVSS
VL: DIQMTQSPSSLSASVGDRVTITCRASQGIRSDLGWYQQRPGKTPKRLIYAASSLQSGVPSRFSGSGSGTEFTLTISSLQPEDFATYYCQQYNSYPLTFGGGTKVEIK
For the molecule B3, the “Reactivity S1-IgG (ELISA OD)” value in assay [1] amounted to 0.191 OD; in assay [2] it was 1.29 OD; in assay [3] it was 0.463 OD; in assay [4], 0.11 OD. The binding result in assay [5] is “no binding”.

B4: 3H12 (antibody, V domains shown)
VH: QVQLQESGPGLVKPSETLSLTCTVSDGSISSFYWSWIRQPPGKGLEWIGYIYYSGSTNYNPSLKSRVTISVDTSKNQFSLKLSSVTAADTAVYYCARDYDILTGYSNYYGMDVWGQGTTVTVSS
VL: B3 VL with S31N, R39K, T43A, Q89L, Y91H, L96F, G100P, V104L, E105D
B4: the “Reactivity S1-IgG (ELISA OD)” value in assay [1] came to 1.3 OD; in assay [2], 0.318 OD; in assay [3] it was 0.185 OD; in assay [4], 0.09 OD.

B5: 5E4 (antibody, V domains shown)
VH: QVHLVQSGAEVKKPGASVKVSCKASGYTFTGYYVHWVRQAPGQGLEWMGWINPNSGGTNYAQKFQGRVTMTRDTSISTAYMELSRLRSDDTAVYFCAGGRYLDYWGQGTLVTVSS
VL: B3 VL with S31N, R39K, T43A, Q89L, L96I, G100Q, K103R, V104L
Consider B5, for which the “Reactivity S1-IgG (ELISA OD)” value is 2.27 OD in assay [1], 1.2 OD in assay [2], 0.735 OD in assay [3] and 0.298 OD in assay [4].

B6: 3F3 (antibody, V domains shown)
VH: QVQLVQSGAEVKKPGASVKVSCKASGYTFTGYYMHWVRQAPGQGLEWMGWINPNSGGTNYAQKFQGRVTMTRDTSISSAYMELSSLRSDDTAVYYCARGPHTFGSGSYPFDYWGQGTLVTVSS
VL: B3 VL with K42N
Consider B6, for which the “Reactivity S1-IgG (ELISA OD)” value in assay [1] was 1.89 OD; in assay [2] it was 1.35 OD; in assay [3] it was 1.07 OD; in assay [4] it was 0.325 OD.

B7: 4E2 (antibody, V domains shown)
VH: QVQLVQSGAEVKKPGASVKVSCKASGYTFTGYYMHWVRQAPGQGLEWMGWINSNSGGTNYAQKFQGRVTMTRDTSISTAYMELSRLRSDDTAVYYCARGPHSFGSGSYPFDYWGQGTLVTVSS
VL: B3 VL
Take B7: the “Reactivity S1-IgG (ELISA OD)” value in assay [1] turned out to be 1.84 OD; in assay [2] it was 1.52 OD; in assay [3] it was 0.019 OD; in assay [4], 0.551 OD.

B8: 5D6 (antibody, V domains shown)
VH: QVQLVQSGAEVKKPGASVKVSCKASGYTFTSYGISWVRQAPGQGLEWMGWISAYNGNTNYAQKLQGRVTMTTDTSTNTAYMELRSLRSDDTAVYYCAVGRYLDYWGQGTLVTVSS
VL: B3 VL with G28D, S31N, R39K, T43A, Q89L
Regarding B8, the “Reactivity S1-IgG (ELISA OD)” value in assay [1] came to 2.12 OD; in assay [2] it was 1.31 OD; in assay [3], 0.747 OD; in assay [4] it was 0.355 OD.

B9: 5A5 (antibody, V domains shown)
VH: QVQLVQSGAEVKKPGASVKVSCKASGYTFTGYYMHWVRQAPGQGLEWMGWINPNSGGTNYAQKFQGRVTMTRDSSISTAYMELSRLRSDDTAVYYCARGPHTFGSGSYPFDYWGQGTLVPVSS
VL: B3 VL with M4L
Regarding B9, the “Reactivity S1-IgG (ELISA OD)” value in assay [1] turned out to be 2.31 OD; in assay [2], 1.19 OD; in assay [3] it was 0.986 OD; in assay [4], 0.337 OD.

B10: 4A10 (antibody, V domains shown)
VH: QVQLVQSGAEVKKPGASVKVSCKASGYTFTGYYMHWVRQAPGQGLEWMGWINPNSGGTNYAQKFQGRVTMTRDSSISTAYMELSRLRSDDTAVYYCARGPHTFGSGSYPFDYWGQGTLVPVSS
VL: B3 VL with M4L
In the case of B10, the “Reactivity S1-IgG (ELISA OD)” value in assay [1] turned out to be 1.79 OD; in assay [2], 1.52 OD; in assay [3] it was 1.01 OD; in assay [4], 0.567 OD.

B11: 6C2 (antibody, V domains shown)
VH: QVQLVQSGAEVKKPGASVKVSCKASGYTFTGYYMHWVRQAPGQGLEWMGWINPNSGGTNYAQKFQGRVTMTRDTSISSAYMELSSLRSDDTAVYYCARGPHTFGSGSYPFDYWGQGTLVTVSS
VL: B3 VL with K42N
For B11, the “Reactivity S1-IgG (ELISA OD)” value in assay [1] turned out to be 1.85 OD; in assay [2], 1.6 OD; in assay [3], 1 OD; in assay [4], 0.586 OD.
